Patent publication US10314894B2, “Treatment of cardio-renal disease using PCSK6” (THE CLEVELAND CLINIC FOUNDATION, priority 2014, dated 2019)

How the values were obtained:
[1] = biological target: T1, corin variant T555I (Homo sapiens, UniProt Q9Y5Q5, T555I); assay: PCSK6-mediated corin activation in HEK293 cells, corin variant T555I; format: cell-based; details: Western
T1 construct: expressed in transfected cells; host or cells: HEK293
T1 sequence (Q9Y5Q5 1-1042 T555I): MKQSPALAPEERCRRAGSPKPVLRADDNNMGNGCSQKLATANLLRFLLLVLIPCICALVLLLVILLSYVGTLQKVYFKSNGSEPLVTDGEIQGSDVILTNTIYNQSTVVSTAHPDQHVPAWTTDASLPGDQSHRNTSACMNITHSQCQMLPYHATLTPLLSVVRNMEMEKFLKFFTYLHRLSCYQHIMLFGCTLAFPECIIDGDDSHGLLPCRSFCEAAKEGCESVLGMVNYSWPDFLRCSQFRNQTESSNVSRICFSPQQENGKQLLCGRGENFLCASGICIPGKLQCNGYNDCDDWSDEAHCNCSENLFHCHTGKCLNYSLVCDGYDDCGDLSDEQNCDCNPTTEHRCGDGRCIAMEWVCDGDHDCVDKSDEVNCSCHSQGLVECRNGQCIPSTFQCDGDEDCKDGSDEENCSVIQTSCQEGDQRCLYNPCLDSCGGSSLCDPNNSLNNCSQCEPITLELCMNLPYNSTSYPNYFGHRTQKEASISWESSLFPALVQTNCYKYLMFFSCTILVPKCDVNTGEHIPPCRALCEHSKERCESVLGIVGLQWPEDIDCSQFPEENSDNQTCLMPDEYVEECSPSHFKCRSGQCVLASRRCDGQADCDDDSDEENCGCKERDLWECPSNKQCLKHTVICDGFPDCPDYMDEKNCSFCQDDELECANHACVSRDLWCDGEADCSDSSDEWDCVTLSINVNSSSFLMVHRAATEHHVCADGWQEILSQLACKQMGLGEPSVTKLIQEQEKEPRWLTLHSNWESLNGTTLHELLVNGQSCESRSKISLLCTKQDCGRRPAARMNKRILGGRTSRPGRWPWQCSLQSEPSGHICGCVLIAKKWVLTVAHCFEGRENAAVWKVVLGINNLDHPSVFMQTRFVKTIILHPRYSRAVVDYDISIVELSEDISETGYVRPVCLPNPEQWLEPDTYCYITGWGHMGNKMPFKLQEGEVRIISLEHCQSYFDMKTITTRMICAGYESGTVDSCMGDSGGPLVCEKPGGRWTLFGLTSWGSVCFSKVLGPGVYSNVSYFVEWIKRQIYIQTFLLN
Source text: (§1) Plasmids expressing human corin WT and mutants R801A, S985A, T555I, Q568P, T555I/Q568P, K317E, S472G and R539C were reported previously. Dong, N. et al., J Biol Chem 289, 17909-17916 (2014); Knappe et al., J Biol Chem 278, 52363-52370 (2003); Wu et al., J Biol Chem 277, 16900-16905. (2002). Plasmids expressing human PCSK1-9 were made by cloning respective cDNAs into pcNDA3.1 vector. Recombinant corin and PCSK proteins encoded by these plasmids contained a C-terminal V5 or flag tag for protein detection in Western blotting.
(§2) HEK293 and HL-1 cells were transfected with corin or PCSK6 expression plasmids. After 48-72 h, cells were lysed in a buffer containing 25 mM Tris-HCl, pH 7.4, 150 mM NaCl, 1 mM EDTA, 1% (v/v) NP-40, and 1% (v/v) protease inhibitor cocktail. Recombinant corin and PCSK6 proteins were immunoprecipitated with an anti-V5 or anti-flag antibody. Western blotting was carried out to analyze corin expression and activation or PCSK6 expression with or without reducing agents. Percentage of corin activation (corin-p vs. corin fragments) was quantified by densitometric analysis of Western blots.

[2] = biological target: T2, corin mutant S472G (Homo sapiens, UniProt Q9Y5Q5, S472G); assay: PCSK6-mediated corin activation in HEK293 cells, corin mutant S472G; format: cell-based; details: Western, densitometry
T2 construct: expressed in transfected cells; host or cells: HEK293
T2 sequence (Q9Y5Q5 1-1042 S472G): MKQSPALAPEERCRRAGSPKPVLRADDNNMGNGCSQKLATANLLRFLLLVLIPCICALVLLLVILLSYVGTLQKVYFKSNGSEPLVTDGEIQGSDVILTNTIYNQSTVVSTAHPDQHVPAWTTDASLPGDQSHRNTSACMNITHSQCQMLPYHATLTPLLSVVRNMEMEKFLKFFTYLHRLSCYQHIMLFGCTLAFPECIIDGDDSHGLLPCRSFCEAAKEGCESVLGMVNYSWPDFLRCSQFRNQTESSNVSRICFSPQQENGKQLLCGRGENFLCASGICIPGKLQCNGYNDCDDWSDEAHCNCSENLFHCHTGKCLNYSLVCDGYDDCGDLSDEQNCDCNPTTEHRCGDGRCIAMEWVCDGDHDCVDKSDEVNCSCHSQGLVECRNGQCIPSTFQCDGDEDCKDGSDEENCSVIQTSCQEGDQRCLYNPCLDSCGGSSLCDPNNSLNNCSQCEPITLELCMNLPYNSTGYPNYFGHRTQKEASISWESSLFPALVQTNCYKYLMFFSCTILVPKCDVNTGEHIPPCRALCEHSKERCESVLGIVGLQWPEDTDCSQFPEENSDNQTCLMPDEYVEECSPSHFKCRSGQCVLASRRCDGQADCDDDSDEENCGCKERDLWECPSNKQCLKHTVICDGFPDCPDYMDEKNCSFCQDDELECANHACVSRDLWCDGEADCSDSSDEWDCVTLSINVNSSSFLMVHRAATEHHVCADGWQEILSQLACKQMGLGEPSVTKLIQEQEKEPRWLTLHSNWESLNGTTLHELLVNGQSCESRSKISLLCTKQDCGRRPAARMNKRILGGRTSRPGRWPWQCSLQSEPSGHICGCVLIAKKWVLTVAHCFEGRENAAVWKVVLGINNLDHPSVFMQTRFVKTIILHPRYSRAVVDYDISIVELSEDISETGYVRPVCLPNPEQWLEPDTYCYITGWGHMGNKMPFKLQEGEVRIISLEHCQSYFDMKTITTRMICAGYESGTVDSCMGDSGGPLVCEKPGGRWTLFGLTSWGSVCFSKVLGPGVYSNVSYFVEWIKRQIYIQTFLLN
Source text: as §1, §2

PCSK6-mediated activation cleavage [1]: detected | reduction in PCSK6-mediated corin activation compared with WT corin [2]: 99%
B1: proprotein convertase subtilisin/kexin-6 (protein, listed as Homo sapiens)
chain: MPPRAPPAPGPRPPPRAAAATDTAAGAGGAGGAGGAGGPGFRPLAPRPWRWLLLLALPAACSAPPPRPVYTNHWAVQVLGGPAEADRVAAAHGYLNLGQIGNLEDYYHFYHSKTFKRSTLSSRGPHTFLRMDPQVKWLQQQEVKRRVKRQVRSDPQALYFNDPIWSNMWYLHCGDKNSRCRSEMNVQAAWKRGYTGKNVVVTILDDGIERNHPDLAPNYDSYASYDVNGNDYDPSPRYDASNENKHGTRCAGEVAASANNSYCIVGIAYNAKIGGIRMLDGDVTDVVEAKSLGIRPNYIDIYSASWGPDDDGKTVDGPGRLAKQAFEYGIKKGRQGLGSIFVWASGNGGREGDYCSCDGYTNSIYTISVSSATENGYKPWYLEECASTLATTYSSGAFYERKIVTTDLRQRCTDGHTGTSVSAPMVAGIIALALEANSQLTWRDVQHLLVKTSRPAHLKASDWKVNGAGHKVSHFYGFGLVDAEALVVEAKKWTAVPSQHMCVAASDKRPRSIPLVQVLRTTALTSACAEHSDQRVVYLEHVVVRTSISHPRRGDLQIYLVSPSGTKSQLLAKRLLDLSNEGFTNWEFMTVHCWGEKAEGQWTLEIQDLPSQVRNPEKQGKLKEWSLILYGTAEHPYHTFSAHQSRSRMLELSAPELEPPKAALSPSQVEVPEDEEDYTAQSTPGSANILQTSVCHPECGDKGCDGPNADQCLNCVHFSLGSVKTSRKCVSVCPLGYFGDTAARRCRRCHKGCETCSSRAATQCLSCRRGFYHHQEMNTCVTLCPAGFYADESQKNCLKCHPSCKKCVDEPEKCTVCKEGFSLARGSCIPDCEPGTYFDSELIRCGECHHTCGTCVGPGREECIHCAKNFHFHDWKCVPACGEGFYPEEMPGLPHKVCRRCDENCLSCAGSSRNCSRCKTGFTQLGTSCITNHTCSNADETFCEMVKSNRLCERKLFIQFCCRTCLLAG
modifications: C-terminal FLAG tag
